Measured values: article PMC8048964 (Angewandte Chemie (International Ed. in English), 2021)

Columns and labels:
[1] = tested on: HeLa cells; test: Live-cell delivery to HeLa cells, CLSM and FiJi image analysis; type: cell-based; conditions: CLSM
[2] = tested on: U2OS cells; test: Live-cell delivery to U2OS cells, confocal laser scanning microscopy; type: cell-based

TAMRA‐Cys(cR10)‐Ub [compound 7]
endosomal or lysosomal entrapment / cytosolic availability of protein [1]: cytosolic availability of protein was not improved

TAMRA-SUMO2-cR10D [compound 15]
signals in lysosomes or endosomes (punctuates) compared to analogue 14 ([2]; 4 μM in PBS, 37 °C, 45 min, CLSM): significantly fewer signals

TAMRA-Ub(S20C(cR10D))-PA [compound 11]
live-cell delivery (TAMRA signal, CLSM) ([2]; 2 μM in PBS, two independent sets of experiments (Figure S23)): significantly good
